Data as given in patent US20160251438A1 (LUDWIG INSTITUTE FOR CANCER RESEARCH, published 2016).

Columns and labels:
[1] = molecular target: T1, GARP / TGF-β1 Q272Y complex (human, UniProt Q14392 20-662; P01137 30-390); assay: FACS titration on transfected 293T; EC50 mutant / EC50 WT [cont.) B]
Description: (§1) Intensities of staining at each concentration of antibody relative to the maximal intensity measured at 5 μg/ml were determined as follows:
(§2) The relative staining intensities were plotted according to the concentration of antibody used for staining, and a non-linear regression analysis was used with the Prism software to determine an EC₅₀ value for binding of the antibody to the WT and to each of the various mutant GARP/TGF-β1 complexes. If the ratio between the EC₅₀ measured on the mutant and the EC₅₀ measured on the WT was >2, the mutation was considered to induce a reduced avidity for binding by the antibody. The ratio of EC₅₀ (mutant vs WT) for MHG-8 and LHG-10 are indicated below each mutation on FIG. 19, parts A and B, respectively.

[2] = molecular target: T2, GARP / TGF-β1 H270Y complex (human, UniProt Q14392 20-662; P01137 30-390); assay: as above
T2 sequence (Q14392 20-662 limits assumed, chain 1 of 2): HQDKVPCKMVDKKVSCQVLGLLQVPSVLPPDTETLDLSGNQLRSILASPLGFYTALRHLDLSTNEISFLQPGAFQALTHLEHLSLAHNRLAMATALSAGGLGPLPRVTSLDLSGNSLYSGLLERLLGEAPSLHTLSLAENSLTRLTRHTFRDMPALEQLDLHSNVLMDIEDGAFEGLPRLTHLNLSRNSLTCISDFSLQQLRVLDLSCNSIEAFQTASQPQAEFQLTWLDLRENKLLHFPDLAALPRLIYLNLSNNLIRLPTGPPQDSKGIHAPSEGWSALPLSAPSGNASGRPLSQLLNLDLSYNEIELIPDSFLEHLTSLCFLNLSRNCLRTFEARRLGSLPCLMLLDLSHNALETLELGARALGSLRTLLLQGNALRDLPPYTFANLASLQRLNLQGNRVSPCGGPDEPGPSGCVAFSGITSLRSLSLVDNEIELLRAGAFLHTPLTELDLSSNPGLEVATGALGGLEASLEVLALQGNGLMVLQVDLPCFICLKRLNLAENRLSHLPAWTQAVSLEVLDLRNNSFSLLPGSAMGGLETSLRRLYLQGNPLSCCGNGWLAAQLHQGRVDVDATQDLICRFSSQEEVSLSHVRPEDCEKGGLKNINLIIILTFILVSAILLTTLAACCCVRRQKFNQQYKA
T2 sequence (P01137 30-390 H270Y limits assumed, chain 2 of 2): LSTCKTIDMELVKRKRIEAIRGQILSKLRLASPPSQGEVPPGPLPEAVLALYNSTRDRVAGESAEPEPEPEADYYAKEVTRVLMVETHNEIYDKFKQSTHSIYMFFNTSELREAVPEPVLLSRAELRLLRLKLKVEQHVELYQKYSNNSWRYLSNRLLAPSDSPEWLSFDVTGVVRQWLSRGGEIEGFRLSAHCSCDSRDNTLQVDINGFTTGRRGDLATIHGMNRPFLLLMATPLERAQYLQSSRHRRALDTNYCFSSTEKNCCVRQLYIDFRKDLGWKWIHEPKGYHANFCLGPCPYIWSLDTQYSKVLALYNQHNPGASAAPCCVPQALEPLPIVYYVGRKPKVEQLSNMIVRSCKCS
Description: as §1, §2

[3] = molecular target: GARP G139N / TGF-β1 complex (human, UniProt Q14392 20-662; P01137 30-390); assay: flow cytometry titration on transfected 293T cells; grade of Reduced avidity read by footnote 3
Description: as §1, §2

[4] = molecular target: T1, GARP / TGF-β1 Q272Y complex; assay: as above
Description: as §1, §2

[5] = molecular target: GARP / TGF-β1 K338E complex (human, UniProt Q14392 20-662; P01137 30-390); assay: as above
Description: as §1, §2

[6] = molecular target: GARP T162D / TGF-β1 complex (human, UniProt Q14392 20-662; P01137 30-390); assay: as above
Sequence of GARP T162D / TGF-β1 complex (Q14392 20-662 T162D limits assumed, chain 1 of 2): as the sequence (Q14392 20-662 limits assumed, chain 1 of 2) above, with T143D counted along it
Sequence of GARP T162D / TGF-β1 complex (P01137 30-390 limits assumed, chain 2 of 2): as the sequence (P01137 30-390 H270Y limits assumed, chain 2 of 2) above, with Y241H counted along it
Description: as §1, §2

[7] = molecular target: GARP / TGF-β1 R58A complex (human, UniProt Q14392 20-662; P01137 30-390); assay: as above
Description: as §1, §2

[8] = molecular target: GARP / TGF-β1 Q269Y complex (human, UniProt Q14392 20-662; P01137 30-390); assay: as above
Description: as §1, §2

[9] = molecular target: GARP R163E / TGF-β1 complex (human, UniProt Q14392 20-662; P01137 30-390); assay: as above
Description: as §1, §2

[10] = molecular target: GARP G118L/G119L / TGF-β1 complex (human, UniProt Q14392 20-662; P01137 30-390); assay: as above
Sequence of GARP G118L/G119L / TGF-β1 complex (Q14392 20-662 G118L/G119L limits assumed, chain 1 of 2): as the sequence (Q14392 20-662 limits assumed, chain 1 of 2) above, with G99L, G100L counted along it
Sequence of GARP G118L/G119L / TGF-β1 complex (P01137 30-390 limits assumed, chain 2 of 2): as the sequence (P01137 30-390 H270Y limits assumed, chain 2 of 2) above, with Y241H counted along it
Description: as §1, §2

[11] = molecular target: GARP / TGF-β1 S337A complex (human, UniProt Q14392 20-662; P01137 30-390); assay: as above
Description: as §1, §2

[12] = molecular target: GARP Y137H / TGF-β1 complex (human, UniProt Q14392 20-662; P01137 30-390); assay: as above
Description: as §1, §2

[13] = molecular target: GARP L140K/E142L / TGF-β1 complex (human, UniProt Q14392 20-662; P01137 30-390); assay: as above
Description: as §1, §2

[14] = molecular target: GARP / TGF-β1 E146R complex (human, UniProt Q14392 20-662; P01137 30-390); assay: as above
Description: as §1, §2

[15] = molecular target: T2, GARP / TGF-β1 H270Y complex; assay: as above
Description: as §1, §2

[16] = molecular target: GARP M111T/A112G/T113M / TGF-β1 complex (human, UniProt Q14392 20-662; P01137 30-390); assay: as above
Description: as §1, §2

[17] = molecular target: GARP R143Y / TGF-β1 complex (human, UniProt Q14392 20-662; P01137 30-390); assay: as above
Description: as §1, §2

[18] = molecular target: GARP / TGF-β1 Y336A complex (human, UniProt Q14392 20-662; P01137 30-390); assay: as above
Description: as §1, §2

[19] = molecular target: GARP R166M/H167E / TGF-β1 complex (human, UniProt Q14392 20-662; P01137 30-390); assay: as above
Description: as §1, §2

[20] = molecular target: GARP R170A / TGF-β1 complex (human, UniProt Q14392 20-662; P01137 30-390); assay: as above
Description: as §1, §2

[21] = molecular target: GARP E189A / TGF-β1 complex (human, UniProt Q14392 20-662; P01137 30-390); assay: as above
Description: as §1, §2

[22] = molecular target: GARP S138G / TGF-β1 complex (human, UniProt Q14392 20-662; P01137 30-390); assay: as above
Description: as §1, §2

T1 sequence (Q14392 20-662 limits assumed, chain 1 of 2): as the sequence (Q14392 20-662 limits assumed, chain 1 of 2) above
T1 sequence (P01137 30-390 Q272Y limits assumed, chain 2 of 2): as the sequence (P01137 30-390 H270Y limits assumed, chain 2 of 2) above, with Y241H, Q243Y counted along it

Ratio of EC50 (mutant / wt) [1]: 0.9
Ratio of EC50 (mutant / wt) [2]: 0.7
ratio of EC50 (mutant vs WT) [3]: ≤ 2 ratio
ratio of EC50 (mutant vs WT) [4]: ≤ 2 ratio
ratio of EC50 (mutant vs WT) [5]: ≤ 2 ratio
ratio of EC50 (mutant vs WT) [6]: > 2 ratio
ratio of EC50 (mutant vs WT) [7]: ≤ 2 ratio
ratio of EC50 (mutant vs WT) [8]: ≤ 2 ratio
ratio of EC50 (mutant vs WT) [9]: > 2 ratio
ratio of EC50 (mutant vs WT) [10]: ≤ 2 ratio
ratio of EC50 (mutant vs WT) [11]: ≤ 2 ratio
ratio of EC50 (mutant vs WT) [12]: ≤ 2 ratio
ratio of EC50 (mutant vs WT) [13]: ≤ 2 ratio
ratio of EC50 (mutant vs WT) [14]: ≤ 2 ratio
ratio of EC50 (mutant vs WT) [15]: ≤ 2 ratio
ratio of EC50 (mutant vs WT) [16]: ≤ 2 ratio
ratio of EC50 (mutant vs WT) [17]: ≤ 2 ratio
ratio of EC50 (mutant vs WT) [18]: ≤ 2 ratio
ratio of EC50 (mutant vs WT) [19]: ≤ 2 ratio
ratio of EC50 (mutant vs WT) [20]: ≤ 2 ratio
ratio of EC50 (mutant vs WT) [21]: ≤ 2 ratio
ratio of EC50 (mutant vs WT) [22]: ≤ 2 ratio
B1: LHG-10 (antibody, human IgG1, V domains shown)
VH: EVQLVQPGAELRNSGASVKVSCKASGYRFTSYYIDWVRQAPGQGLEWMGRIDPEDGGTKYAQKFQGRVTFTADTSTSTAYVELSSLRSEDTAVYYCARNEWETVVVGDLMYEYEYWGQGTQVTVSS
VL: DIQMTQSPTSLSASLGDRVTITCQASQSISSYLAWYQQKPGQAPKLLIYGASRLQTGVPSRFSGSGSGTSFTLTISGLEAEDAGTYYCQQYDSLPVTFGQGTKVELK
notes: llama-derived V regions in a full human IgG1
